{"source": "paper PMC12212138", "about": "“Crystal structure and mutagenesis of a nucleic acid–binding BRCT domain in human PARP4”", "key": {"PARP4 BRCT WT": {"biological_target": "T1, PARP4 BRCT WT (human, UniProt Q9UKK3 1-100)", "T1 sequence": "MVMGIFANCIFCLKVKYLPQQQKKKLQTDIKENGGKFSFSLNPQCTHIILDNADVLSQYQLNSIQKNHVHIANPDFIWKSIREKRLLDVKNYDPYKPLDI", "test": "FP; 3 nM probe; FP: 50 mM Tris pH 7.5, 50 mM NaCl, 1 mM MgCl2, 0.05% NP40, 2 mM DTT, 5% glycerol, 25 ug/ml BSA, room temp 30 min; EMSA: 50 mM Tris pH 7.5, 50 mM NaCl, 4% Ficoll PM400, 0.05% NP40, 2 mM DTT, 0-18 uM protein, room temp 30 min, gel at 4 C", "details": "protein: recombinant; tags: N-terminal His-SUMO removed by TEV; label: 5'-6-FAM; predicted intramolecular fold"}, "PARP4 BRCT-WGR-CAT WT [1]": {"biological_target": "T2, PARP4 BRCT-WGR-CAT WT (human, UniProt Q9UKK3 1-573)", "T2 sequence": "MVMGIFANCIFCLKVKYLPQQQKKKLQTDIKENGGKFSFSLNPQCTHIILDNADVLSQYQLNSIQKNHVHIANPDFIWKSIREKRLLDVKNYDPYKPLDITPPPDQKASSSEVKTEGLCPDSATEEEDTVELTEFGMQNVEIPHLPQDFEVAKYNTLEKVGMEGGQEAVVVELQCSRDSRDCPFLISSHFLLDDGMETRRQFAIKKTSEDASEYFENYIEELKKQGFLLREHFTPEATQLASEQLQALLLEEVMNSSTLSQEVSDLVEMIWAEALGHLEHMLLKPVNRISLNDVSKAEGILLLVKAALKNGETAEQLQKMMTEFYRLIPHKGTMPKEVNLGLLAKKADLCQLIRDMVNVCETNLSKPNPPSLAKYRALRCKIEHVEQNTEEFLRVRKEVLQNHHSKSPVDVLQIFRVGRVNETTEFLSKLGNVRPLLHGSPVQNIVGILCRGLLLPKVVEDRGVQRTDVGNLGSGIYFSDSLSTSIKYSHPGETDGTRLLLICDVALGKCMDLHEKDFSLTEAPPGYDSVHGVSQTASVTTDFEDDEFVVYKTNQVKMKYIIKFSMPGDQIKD", "test": "FP; 15 nM probe; FP: 50 mM Tris pH 7.5, 50 mM NaCl, 1 mM MgCl2, 0.05% NP40, 2 mM DTT, 5% glycerol, 25 ug/ml BSA, room temp 30 min; EMSA: 50 mM Tris pH 7.5, 50 mM NaCl, 4% Ficoll PM400, 0.05% NP40, 2 mM DTT, 0-18 uM protein, room temp 30 min, gel at 4 C", "details": "protein: recombinant, tags: N-terminal His-SUMO removed by TEV"}, "PARP4 BRCT-WGR-CAT WT [2]": {"biological_target": "T2, PARP4 BRCT-WGR-CAT WT", "test": "EMSA; 20 nM probe; FP: 50 mM Tris pH 7.5, 50 mM NaCl, 1 mM MgCl2, 0.05% NP40, 2 mM DTT, 5% glycerol, 25 ug/ml BSA, room temp 30 min; EMSA: 50 mM Tris pH 7.5, 50 mM NaCl, 4% Ficoll PM400, 0.05% NP40, 2 mM DTT, 0-18 uM protein, room temp 30 min, gel at 4 C", "details": "protein: recombinant; tags: N-terminal His-SUMO removed by TEV; label: 5'-6-FAM; single strand, predicted fold"}}}
{"binder": "vtRNA1-1 (structured_RNA) RNA: GGCUGGCUUUAGCUCAGCGGUUACUUCGACAGUUCUUUAAUUGAAACAAGCAACCUGUCUGGGUUGUUCGAGACCCGCGGGCGCUCUCCAGUCCUUUU", "values": [{"measurement": "Kd", "setting": "PARP4 BRCT WT", "value": "13 ± 4", "unit": "µM"}]}
{"binder": "Probe 1 (dsRNA) RNA 1: GGCUGGCUUUAGCUCAGCGG RNA 2: CCGCGGGCGCUCUCCAGCCCUCUU", "values": [{"measurement": "Kd", "setting": "PARP4 BRCT-WGR-CAT WT [1]; label: 5'-6-FAM on strand 1, two-strand partial duplex", "value": "25 ± 10", "unit": "µM"}]}
{"binder": "GUCAUCAAACCACCUCUCUGGGUUGUUCGAGAC (structured_RNA)", "note": "[Probe 2]", "values": [{"measurement": "Kd", "setting": "PARP4 BRCT-WGR-CAT WT [2]", "value": "11 ± 3", "unit": "µM"}, {"measurement": "Kd", "setting": "PARP4 BRCT-WGR-CAT WT [1]; label: 5'-6-FAM, single strand, predicted fold", "value": "44 ± 13", "unit": "µM"}]}
{"binder": "vtRNA1-2 (structured_RNA) RNA: GGCUGGCUUUAGCUCAGCGGUUACUUCGAGUACAUUGUAACCACCUCUCUGGGUGGUUCGAGACCCGCGGGUGCUUUCCAGCUCUUUU", "values": [{"measurement": "Kd", "setting": "PARP4 BRCT WT", "value": "20 ± 5", "unit": "µM"}]}
